From patent publication US20110300138A1 (published 2011)

Key:
[1] = molecular target: TSHR260-AP (fusion protein consisting of a fragment of human TSHR, amino acids 22-260, with alkaline phosphatase) (human); experiment: bridging ELISA: full length TSHR on wells, TSHR260-AP in liquid phase; IgG 1 µg/mL in HBD serum
[2] = molecular target: TSHR260-AP (fusion protein consisting of a fragment of human TSHR, amino acids 22-260, with alkaline phosphatase) (human); experiment: bridging ELISA: full length TSHR on wells, TSHR260-AP in liquid phase; IgG 10 µg/mL in HBD serum
[3] = molecular target: TSHR260-AP (fusion protein consisting of a fragment of human TSHR, amino acids 22-260, with alkaline phosphatase) (human); experiment: bridging ELISA: full length TSHR on wells, TSHR260-AP in liquid phase; IgG 0.1 µg/mL in HBD serum
[4] = molecular target: TSHR260-AP (fusion protein consisting of a fragment of human TSHR, amino acids 22-260, with alkaline phosphatase) (human); experiment: bridging ELISA: full length TSHR on wells, TSHR260-AP in liquid phase; IgG 0.5 µg/mL in HBD serum
[5] = molecular target: TSHR260-AP (fusion protein consisting of a fragment of human TSHR, amino acids 22-260, with alkaline phosphatase) (human); experiment: bridging ELISA: full length TSHR on wells, TSHR260-AP in liquid phase; IgG 0.01 µg/mL in HBD serum
[6] = molecular target: TSHR260-AP (fusion protein consisting of a fragment of human TSHR, amino acids 22-260, with alkaline phosphatase) (human); experiment: bridging ELISA: full length TSHR on wells, TSHR260-AP in liquid phase; IgG 0.05 µg/mL in HBD serum
[7] = molecular target: TSHR260-AP (fusion protein consisting of a fragment of human TSHR, amino acids 22-260, with alkaline phosphatase) (human); experiment: bridging ELISA: full length TSHR on wells, TSHR260-AP in liquid phase; IgG 0.005 µg/mL in HBD serum
[8] = molecular target: T1, thyroid stimulating hormone receptor (TSHR), full length human (human, UniProt P16473 22-764); experiment: 125I-K1-18 Fab competition, TSHR coated tubes; 1 µg/mL in HBD
T1 construct: TSHR coated on plastic tubes; also called TSH receptor
Description: (§1) Binding inhibition assays were carried out using TSHR coated tubes as described in WO2004/050708A2. […] After aspiration, the tubes were washed and 100 μL of ¹²⁵I-labelled protein (5×10⁴ cpm) added and incubated for 1 hour at room temperature with shaking. The tubes were then aspirated, washed and counted in a gamma counter. Inhibition of labelled protein binding was calculated as 100×[1−(cpm bound in the presence of test material/cpm bound in the presence of control material)].

[9] = molecular target: T1, thyroid stimulating hormone receptor …; experiment: 125I-K1-18 Fab competition, TSHR coated tubes; 3 µg/mL in HBD
Description: as §1

[10] = molecular target: T1, thyroid stimulating hormone receptor …; experiment: 125I-K1-18 Fab competition, TSHR coated tubes; 10 µg/mL in HBD
Description: as §1

[11] = molecular target: T1, thyroid stimulating hormone receptor …; experiment: 125I-K1-18 Fab competition, TSHR coated tubes; 30 µg/mL in HBD
Description: as §1

[12] = molecular target: T1, thyroid stimulating hormone receptor …; experiment: 125I-K1-18 Fab competition, TSHR coated tubes; 0.1 µg/mL in HBD
Description: as §1

[13] = molecular target: T1, thyroid stimulating hormone receptor …; experiment: 125I-K1-18 Fab competition, TSHR coated tubes; 100 µg/mL in HBD
Description: as §1

[14] = molecular target: T1, thyroid stimulating hormone receptor …; experiment: 125I-K1-18 Fab competition, TSHR coated tubes; 1 µg/mL in assay buffer
Description: as §1

[15] = molecular target: T1, thyroid stimulating hormone receptor …; experiment: 125I-K1-18 Fab competition, TSHR coated tubes; 3 µg/mL in assay buffer
Description: as §1

[16] = molecular target: T1, thyroid stimulating hormone receptor …; experiment: 125I-K1-18 Fab competition, TSHR coated tubes; 10 µg/mL in assay buffer
Description: as §1

[17] = molecular target: T1, thyroid stimulating hormone receptor …; experiment: 125I-K1-18 Fab competition, TSHR coated tubes; 30 µg/mL in assay buffer
Description: as §1

[18] = molecular target: T1, thyroid stimulating hormone receptor …; experiment: 125I-K1-18 Fab competition, TSHR coated tubes; 0.1 µg/mL in assay buffer
Description: as §1

[19] = molecular target: T1, thyroid stimulating hormone receptor …; experiment: 125I-K1-18 Fab competition, TSHR coated tubes; 100 µg/mL in assay buffer
Description: as §1

[20] = molecular target: T2, full length human TSHR, detergent-solubilised, coated on tubes or ELISA plate wells (human, UniProt P16473 22-764); experiment: Scatchard analysis, full length TSHR coated tubes (mean±SD, n=3)
T2 construct: Full length receptor expressed in CHO cells, solubilised with detergent and held on the plastic by a mouse MAb to the C-terminus; The leader 1-21 is stated for the TSHR260 construct of the same receptor; also called TSH receptor; TSHR (full length)

[21] = molecular target: T3, human TSH receptor, full length, detergent-solubilised, coated on tubes or ELISA plate wells (human, UniProt P16473 22-764); experiment: TSHR binding affinity (summary table; Scatchard analysis, TSHR coated tubes)
T3 construct: Full length recombinant receptor expressed in CHO cells, solubilised and coated via a C-terminal antibody; also called wild type TSHR; full length TSHR

[22] = molecular target: T4, TSHR260 (human, UniProt P16473 22-260); experiment: Scatchard analysis, TSHR260 coated tubes (mean±SD, n=3)
T4 construct: Expressed in insect cells; coated on tubes or wells by way of a mouse TSHR MAb (14C4 F(ab')2 in the stability ELISA); also called TSHR fragment of amino acids 22-260

[23] = molecular target: T2, full length human TSHR, …; experiment: Scatchard analysis, 125I-labelled antibody on full length TSHR coated tubes (mean±SD, n=3)

Molecule	Inhibition of binding (%) [8] [%]	Inhibition of binding (%) [9] [%]	Inhibition of binding (%) [10] [%]	Inhibition of binding (%) [11] [%]	Inhibition of binding (%) [12] [%]	Inhibition of binding (%) [13] [%]	Inhibition of binding (%) [14] [%]	Inhibition of binding (%) [15] [%]	Inhibition of binding (%) [16] [%]	Inhibition of binding (%) [17] [%]	Inhibition of binding (%) [18] [%]	Inhibition of binding (%) [19] [%]	also measured
9D33 IgG (mouse TSHR blocking MAb) (antibody)													Mean absorbance at 405 nm (absorbance at 405 nm) [1]: 0.329; Mean absorbance at 405 nm (absorbance at 405 nm) [2]: 0.481; Mean absorbance at 405 nm (absorbance at 405 nm) [3]: 0.102; Mean absorbance at 405 nm (absorbance at 405 nm) [4]: 0.273; Mean absorbance at 405 nm (absorbance at 405 nm) [5]: 0.011; Mean absorbance at 405 nm (absorbance at 405 nm) [6]: 0.056; Mean absorbance at 405 nm (absorbance at 405 nm) [7]: 0.006
K1-18 IgG (antibody, V domains shown, Human IgG1 kappa purified from hetero-hybridoma supernatant; also called human monoclonal autoantibody K1-18) VH: EVQLVQSGAEVKKPGESLKISCKGSGYSFTNYWIGWVRQMPGKGLEWMGIIYPYDSDTRYSPSFEGQVTISADKSIRTAYLHWSSLKASDTAMYYCVRPRDGSYPYDAFDIWGQGTMVTVSS VL: EIVLTQSPGTLSLSPGERATLSCRASQSVSNNYLAWYQQKPGQAPRLLIYGASSRATGIPDRFSGSGSGTDFTLTISRLEPEDFAVYYCQHCGSSLRAFGQGTKVEIKR	91.9	94	94.5	95.7	57	96	93.3	93.7	94.8	94.5	78.5	94.8	
K1-18 Fab (Fab, V domains shown) VH: EVQLVQSGAEVKKPGESLKISCKGSGYSFTNYWIGWVRQMPGKGLEWMGIIYPYDSDTRYSPSFEGQVTISADKSIRTAYLHWSSLKASDTAMYYCVRPRDGSYPYDAFDIWGQGTMVTVSS VL: EIVLTQSPGTLSLSPGERATLSCRASQSVSNNYLAWYQQKPGQAPRLLIYGASSRATGIPDRFSGSGSGTDFTLTISRLEPEDFAVYYCQHCGSSLRAFGQGTKVEIKR [K1-18 Fab, listing 1 of 2 here]	79.2	82.8	81.6	82.6	43.9	84.8	81.5	81.1	83.5	84.2	62.5	86.2	
K1-70 IgG (antibody, V domains shown, Human IgG1 lambda purified from hetero-hybridoma supernatant; also called human monoclonal autoantibody K1-70) VH: EVQLVQSGAEVKKPGQSLKISCKASGYSLTDNWIGWVRQKPGKGLEWMGIIYPGDSDTRYSPSFQGQVTISADKSINTAYLQWSSLKASDTAIYYCVGLDWNYNPLRYWGPGTLVTVSS VL: QSVLTQPPSVSAAPGQKVTISCSGSSSDIGSNYVSWYQQFPGTAPKLLIYDNNKRPSAIPDRFSGSKSGTSATLGITGLQTGDEADYYCGTWDSRLGIAVFGGGTQLTVLG	94	95.3	95.8	95.5	60.1	95.6	94	94.5	94.6	95.1	73.8	94.8	
K1-18 Fab (Fab, V domains shown) VH: EVQLVQSGAEVKKPGESLKISCKGSGYSFTNYWIGWVRQMPGKGLEWMGIIYPYDSDTRYSPSFEGQVTISADKSIRTAYLHWSSLKASDTAMYYCVRPRDGSYPYDAFDIWGQGTMVTVSS VL: EIVLTQSPGTLSLSPGERATLSCRASQSVSNNYLAWYQQKPGQAPRLLIYGASSRATGIPDRFSGSGSGTDFTLTISRLEPEDFAVYYCQHCGSSLRAFGQGTKVEIKR [K1-18 Fab, listing 2 of 2 here]													Ka [20]: 1.8e+09 M⁻¹
K1-18 IgG (human monoclonal TSHR autoantibody with stimulating activity) (antibody, V domains shown, IgG1 kappa purified from hetero-hybridoma supernatant; also called stimulating MAb K1-18 (IgG1 kappa)) VH: EVQLVQSGAEVKKPGESLKISCKGSGYSFTNYWIGWVRQMPGKGLEWMGIIYPYDSDTRYSPSFEGQVTISADKSIRTAYLHWSSLKASDTAMYYCVRPRDGSYPYDAFDIWGQGTMVTVSS VL: EIVLTQSPGTLSLSPGERATLSCRASQSVSNNYLAWYQQKPGQAPRLLIYGASSRATGIPDRFSGSGSGTDFTLTISRLEPEDFAVYYCQHCGSSLRAFGQGTKVEIKR													Ka [21]: 7e+09 M⁻¹
K1-18 Fab (Fab, V domains shown, also called Fab of K1-18) VH: EVQLVQSGAEVKKPGESLKISCKGSGYSFTNYWIGWVRQMPGKGLEWMGIIYPYDSDTRYSPSFEGQVTISADKSIRTAYLHWSSLKASDTAMYYCVRPRDGSYPYDAFDIWGQGTMVTVSS VL: EIVLTQSPGTLSLSPGERATLSCRASQSVSNNYLAWYQQKPGQAPRLLIYGASSRATGIPDRFSGSGSGTDFTLTISRLEPEDFAVYYCQHCGSSLRAFGQGTKVEIKR													Ka [21]: 1.3e+09 M⁻¹
K1-70 IgG (antibody, V domains shown, N-terminus blocked; deblocked with pyroglutamate aminopeptidase for Edman sequencing, Human IgG1 lambda purified from hetero-hybridoma supernatant; also called human MAb K1-70) VH: EVQLVQSGAEVKKPGQSLKISCKASGYSLTDNWIGWVRQKPGKGLEWMGIIYPGDSDTRYSPSFQGQVTISADKSINTAYLQWSSLKASDTAIYYCVGLDWNYNPLRYWGPGTLVTVSS VL: QSVLTQPPSVSAAPGQKVTISCSGSSSDIGSNYVSWYQQFPGTAPKLLIYDNNKRPSAIPDRFSGSKSGTSATLGITGLQTGDEADYYCGTWDSRLGIAVFGGGTQLTVLG													Ka [22]: 3.1e+10 M⁻¹; Ka [23]: 3.9e+10 M⁻¹
K1-70 Fab (Fab, V domains shown, N-terminus blocked; deblocked with pyroglutamate aminopeptidase for Edman sequencing) VH: EVQLVQSGAEVKKPGQSLKISCKASGYSLTDNWIGWVRQKPGKGLEWMGIIYPGDSDTRYSPSFQGQVTISADKSINTAYLQWSSLKASDTAIYYCVGLDWNYNPLRYWGPGTLVTVSS VL: QSVLTQPPSVSAAPGQKVTISCSGSSSDIGSNYVSWYQQFPGTAPKLLIYDNNKRPSAIPDRFSGSKSGTSATLGITGLQTGDEADYYCGTWDSRLGIAVFGGGTQLTVLG													Ka [22]: 9.3e+09 M⁻¹; Ka [20]: 2.3e+10 M⁻¹
